Patent publication US20240084005A1 (ALLAKOS, published 2024)
Numbering of substitutions follows the chain as printed. Values belong to the binder of their own block, whether it stands above or below them.

Columns and labels:
[1] = target: T1, Siglec-6 (antigen of Example 8) (human, UniProt O43699 27-347, limits assumed); experiment: Siglec-6 binding ELISA after 2 weeks of forced degradation (elevated temperature, low pH)
Method: AK20 and AK21 were further evaluated in a forced degradation stability study. AK20 and AK21 (both using a wild-type human IgG1 Fc region with normal fucosylation) were incubated for 2 weeks at elevated temperatures and low pH followed by assessment of activity using a Siglec-6 binding ELISA.

[2] = target: T1, Siglec-6 (antigen of Example 8); experiment: Siglec-6 binding ELISA after 1 week of forced degradation (elevated temperature, low pH); 1 week of forced degradation (elevated temperatures and low pH)
[3] = target: T1, Siglec-6 (antigen of Example 8); experiment: Siglec-6 binding ELISA after 1 week of forced degradation (elevated temperature, low pH)
[4] = target: T2, Siglec-6 domain 1 fused to a human Fc (human, UniProt O43699 27-147); experiment: ELISA on Siglec-6 domain-human Fc fusions (Domain Mapping = 2)
T2 construct: also called domain 1 fusion protein; not shown: human Fc
T2 sequence (O43699 27-147 limits assumed): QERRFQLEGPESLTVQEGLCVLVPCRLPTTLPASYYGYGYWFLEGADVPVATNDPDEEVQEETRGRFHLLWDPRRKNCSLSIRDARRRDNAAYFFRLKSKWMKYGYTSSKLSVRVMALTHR
Method: Domain mapping was assessed by ELISA using recombinantly expressed Siglec-6 extracellular domains fused to a human Fc containing the full ECD, domains 1 and 2, or domain 1. Siglec-6 mAbs were tested for binding to each of these domain fusion proteins and assigned domains based on their specific binding properties. Siglec-6 mAbs that bound to all three fusion proteins were assigned domain 1 binders, mAbs that bound to full ECD and domains 1 and 2 were assigned domain 2 binders, and mAbs that bound to only the full ECD protein were assigned domain 3 binders.

[5] = target: T3, Siglec-6 ECD Fc protein (human, UniProt O43699 27-347); experiment: BLI (Octet Red 384), bivalent IgG on immobilized Siglec-6 ECD Fc
T3 construct: also called Siglec-6 full ECD fused to a human Fc; not shown: human Fc
T3 sequence (O43699 27-347): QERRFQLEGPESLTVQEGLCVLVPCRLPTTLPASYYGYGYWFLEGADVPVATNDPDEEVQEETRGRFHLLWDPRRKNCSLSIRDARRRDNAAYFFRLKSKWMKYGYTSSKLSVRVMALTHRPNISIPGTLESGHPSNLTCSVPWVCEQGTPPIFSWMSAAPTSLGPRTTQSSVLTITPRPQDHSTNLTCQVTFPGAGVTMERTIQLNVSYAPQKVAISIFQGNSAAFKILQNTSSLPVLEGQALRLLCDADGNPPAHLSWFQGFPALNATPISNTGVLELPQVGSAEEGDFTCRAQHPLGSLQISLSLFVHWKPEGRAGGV
Method: Bivalent binding affinities of IgG for Siglec-6 mAbs were measured by biolayer interferometry using a FortéBio Octet Red 384 instrument using immobilized Siglec-6 ECD Fc protein.

T1 sequence (O43699 27-347 limits assumed): as the sequence (O43699 27-347) above

EC50 [1]: 6.4 ng/mL
EC50 [2]: 6.5 ng/mL
B1: AK20 (wild-type human IgG1 Fc) (antibody, V domains shown)
VH: QVQLQESGPGLVKPSETLSLTCTVSGFSLTSYGVSWIRQPPGKGLEWIGVIWHDGSTSYHPSLKSRVTISRDTSKNQVSLKLSSVTAADTAVYYCASDGYSGTFAYWGQGTLVTVSS
VL: QIVVTQSPATLSLSPGERATLSCTASSSVSSSYLHWYQQKPGQAPRLLIYSTSILASGIPARFSGSGSGTDFTLTISSLQPEDFAVYYCHQYHRSPYTFGQGTKLEIK
notes: Tested after forced degradation

EC50 [3]: 9.1 ng/mL
EC50 [1]: 9.3 ng/mL
B2: AK21 (wild-type human IgG1 Fc) (antibody, V domains shown)
VH: B1 VH with T30S, S58N, H60N
VL: B1 VL
notes: as for B1

binding result [4]: no binding
Kd [5]: 0.084 nM
B3: AK10 (antibody, V domains shown)
VH: EVQLQQSGPELMKPGASVKISCKASGYTFTDYYMNWVKQSHGKSLEWIGDINPKIGDTIYNQKFKGKATLTVDKSSSTAYMELRSLTSEDSAVYYCARWDYYGSSLFDYWGQGTTLTVSS
VL: DIVMTQSHKFMSTSVGDRVSITCKASQDVTTAVAWYQQKPGQSPKLLIYWASTRHTGVPDRFTGTGSGTDYTLTISNVQAEDLALYYCQQHYSTPYTFGGGTKLEIK
notes: also called anti-Siglec-6 mAb AK10
